Values quoted from earlier work as cited in publication PMC5427998 (Chemical Science, 2017).
Bridges are numbered along the chain shown (N, C = ends). Where no end group is shown, it is not given here.

Conditions: 95 °C

## Microcin J25 (GGAGHVPEYFVGIGTPISFYG; lactam N-8; UniProt Q9X2V7 38-58, looked up) [MccJ25]
  thermal denaturation / retention of threaded structure: did not denature
